Experimental findings from US20120129757A1, “COMPOSITIONS AND METHODS FOR PROMOTING VASCULAR BARRIER FUNCTION AND TREATING PULONARY FIBROSIS” (priority 2008, published 2012) are described below.

“Also recorded” adds a separate entry of the source.

The subject of one experiment is BL/6 mice. Type of experiment: in vivo, mouse.
In another experiment the test system is endothelial cell. Nature of the experiment: VEGF mediated endothelial cell migration. The conditions noted are these: Slit constructs 2 nM. The experiment is classed as cell-based.
For experiment [1], the system named is HMVEC-lung. The experiment is described as follows: Immunofluorescence for VE-cadherin and p120-catenin after IL-1β stimulation. The experiment is classed as cell-based, human. The settings on record: 10 ng/mL IL-1β 3 hours, Slit2N pre-treatment 30 minutes. The procedure: Immunofluorescence. Immunofluorescence was performed as described in Jones, C. […] 2008. Cells were pre-treated with Slit2N or Mock for 30 minutes followed by stimulation with 10 ng/mL IL-1β for 3 hours. Primary antibodies to VE-cadherin (BD biosciences) or p120-catenin (Santa Cruz) were applied at 4° C. overnight. Images are representative of three independent experiments.

Experiment [2] deals with VE-cadherin/p120-catenin interaction. The experiment is described as follows: Immunoprecipitation of VE-cadherin, immunoblot for p120-catenin. The settings on record: HMVEC-lung, 10 ng/mL IL-1β 10 minutes. The experiment is classed as cell-based, human. Here is the method:
Immunoprecipitation. HMVEC-lung were treated with Slit2N or Mock in 0.1% FBS EBM-2 for 30 minutes. Cells were then stimulated with 10 ng/mL IL-1β for 10 minutes. HMVEC-lung were then washed with ice-cold PBS and lysed with ice-cold lysis buffer (10 mM Tris-HCl pH7.4, 50 mM NaCl, 1% NP-40 and 10% glycerol) supplemented with protease inhibitors, phosphatase inhibitors and 1 mM DTT. Cell lysates were incubated on ice for 30 min and centrifuged at 13,000 g for 15 minutes to pellet cell debris. Protein concentrations were determined by BCA assay (PIERCE) and 0.5 mg lysate were incubated with 8 μg of VE-cadherin antibody (Cell Signaling) and protein A/G sepharose (Santa Cruz) for 1 hour at 4° C. Complexes were washed three times with lysis buffer. The immunoprecipitates were subjected to Western blot analysis.
In general terms: Immunoblotting shows a protein as a band on a membrane.

In experiment [3] the test system is HMVEC-lung. The experiment is described as follows: Subcellular (membrane) fractionation and immunoblotting. Type of experiment: cell-based, human. Here is the method: Subcellular fractionation. HMVEC-lung were treated with Slit2N or Mock in 0.1% FBS EBM-2 for 1.5 hours. Cells were then washed twice with ice-cold PBS containing Ca^2+/Mg^2+, once with HLB buffer (10 mM Tris-HCl PH7.4, 5 mM KCl, 1 mM MgCl2), and collected in HLB buffer supplemented with protease inhibitors (Roche), phosphatase inhibitors (Sigma) and 1 mM DTT. Cells were then dounce-homogenized (20 strokes). The homogenate was centrifuged at 400 g for 10 minutes at 4° C. to pellet cell debris. The resulting supernatant was centrifuged again at 16,000 g for 30 minutes at 4° C. The pellet was washed once with HLB and resuspended in RIPA buffer for 30 minutes at 4° C. The resuspended pellet was centrifuged (16,000 g/15 min at 4° C.), and the resulting supernatant was saved as soluble membrane fraction. To obtain the total cell lysate an aliquot was saved prior to dounce homogenization. RIPA buffer was added to this aliquot and centrifuged at 13,000 g for 10 minutes at 4° C. The supernatant was saved and used as total cell lysate. Antibodies to VE-cadherin were obtained from Cell Signaling, and p120-catenin and β-catenin from BD biosciences.

A further experiment concerns VE-cadherin. Nature of the experiment: VE-cadherin internalization assay. The settings on record: HMVEC-lung, 10 ng/ml IL-1β 1 hour, 10 nM Slit2N. Type of experiment: cell-based, human. Here is the method:
Internalization assay. VE-cadherin internalization was performed as described Xiao, K., J. Garner, K. M. Buckley, P. A. Vincent, C. M. Chiasson, E. Dejana, V. Faundez, and A. P. Kowalczyk. 2005. p120-Catenin regulates clathrin-dependent endocytosis of VE-cadherin. Mol Biol Cell 16:5141-5151. In brief, HMVEC-lung were seeded onto chamber slides and cultured for 72 hours. The media was then removed and the cells labeled for 30 minutes at 4° C. with anti-VE-cadherin antibody (clone BV6, RDI Fitzgerald). Cells were then pre-treated with Slit2N or Mock for 30 minutes. Excess antibody was removed by washing twice on ice with ice-cold media. Chamber slides were moved to 37° C. and incubated for 1 hour with 10 ng/ml IL-1β and 0.6 mM primaquine in the presence of 10 nM Slit2N or Mock. Cells were acid-washed to strip the surface-bound VE-cadherin. Monolayers were washed, fixed, and permeablized. Internalized VE-cadherin antibody was detected with Alexa 488-conjugated donkey anti-mouse IgG (Molecular Probes). Images are representative of four independent experiments.

Experiment [4] deals with C57BL/6 mice. The experiment is classed as in vivo, mouse.
Experiment [5] deals with C57BL/6 mice. The experiment is classed as in vivo, mouse. The source holds these as a separate data set.
In the next experiment the test system is primary human PMNs. Nature of the experiment: Neutrophil migration to fMLP, primary hPMNs. The experiment is classed as cell-based. The settings on record: fMLP 10 μM, 2 h. Here is the method: Neutrophil migration. HL-60 cells were grown under standard conditions with RPMI-1640 media supplemented with 10% FBS and 1% pen/step. Cells induced with 1.2% dimethyl sulphoxide (DMSO) were obtained by seeding HL-60 cells at 3×10^6 per mL in growth media and culturing for 4 6 days (Collins, S. J., F. W. Ruscetti, R. E. Gallagher, and R. C. Gallo. 1978. Terminal differentiation of human promyelocytic leukemia cells induced by dimethyl sulfoxide and other polar compounds. Proc Natl Acad Sci USA 75:2458-2462). hPMNs were isolated from healthy adult donor whole blood with ACD using techniques described in Zimmerman, G. A., T. M. McIntyre, and S. M. Prescott. 1985. Thrombin stimulates the adherence of neutrophils to human endothelial cells in vitro. J Clin Invest 76:2235-2246. The leukocyte chemoattractant fMLP (10 μM) along with Slit2 or Mock was placed in the lower wells of a 48-well chemotaxis chamber (Neuroprobe). A fibronectin coated (over night at 4° C.) polycarbonate membrane (Neuroprobe, 5 μm) was placed between the chemoattractant and the cells. HL-60 cells induced with DMSO or hPMNs (50 μl, 50,000 cells) were added to the upper wells. […] Migrated cells in 5 high power fields were counted and migration expressed as the percent of cells migrated compared to cells migrated towards fMLP in the absence of Slit2 or Mock.

Experiment [6] has as its system H5N1 virus (Influenza A, Duck/MN/1525/81). Type of experiment: in vivo, BALB/c mice.
The mark [7] stands for this setting: Slit2N vs Mock, membrane fraction.
Where [8] appears, read: 20 μg VE-cadherin blocking antibody (BV13) IV, LPS IT.
Where [9] appears, read: Robo4+/+ mice, 24 hours after LPS, dose-dependent.

On to `COc1nc(-c2ccc3c(c2)OCO3)n(-c2ccc(NC(=O)CSc3ccccc3)cc2)n1` [SecinH3, reference compound], for which the “Bleomycin-induced fibrosis (Sircol collagen assay)” value in the experiment on BL/6 mice (BL/6 mice, 0.05 U Bleomycin intranasal, 100 uL of 30 uM SecinH3 i.p. twice a day, day 11) is recorded as “inhibits”.

B1: Slit2-D1: Recombinant Slit2 construct, 40 kD, SEQ ID NO: 7 (protein, listed as Homo sapiens)
chain: ILNKVAPQACPAQCSCSGSTVDCHGLALRSVPRNIPRNTERLDLNGNNITRITKTDFAGLRHLRVLQLMENKISTIERGAFQDLKELERLRLNRNHLQLFPELLFLGTAKLYRLDLSENQIQAIPRKAFRGAVDIKNLQLDYNQISCIEDGAFRALRDLEVLTLNNNNITRLSVASFNHMPKLRTFRLHSNNLYCDCHLAWLSDWLRQRPRVGLYTQCMGPSHLRGHNVAEVQKREFVCS
For the molecule B1, the “Inhibition of VEGF mediated endothelial cell migration” value with endothelial cell was “active”.

B2: Slit2N: N-terminal active fragment of Slit2 released by proteolytic cleavage; 150 kD recombinant protein, SEQ ID NO: 4 (protein, listed as Homo sapiens)
chain: QACPAQCSCSGSTVDCHGLALRSVPRNIPRNTERLDLNGNNITRITKTDFAGLRHLRVLQLMENKISTIERGAFQDLKELERLRLNRNHLQLFPELLFLGTAKLYRLDLSENQIQAIPRKAFRGAVDIKNLQLDYNQISCIEDGAFRALRDLEVLTLNNNNITRLSVASFNHMPKLRTFRLHSNNLYCDCHLAWLSDWLRQRPRVGLYTQCMGPSHLRGHNVAEVQKREFVCSDEEEGHQSFMAPSCSVLHCPAACTCSNNIVDCRGKGLTEIPTNLPETITEIRLEQNTIKVIPPGAFSPYKKLRRIDLSNNQISELAPDAFQGLRSLNSLVLYGNKITELPKSLFEGLFSLQLLLLNANKINCLRVDAFQDLHNLNLLSLYDNKLQTIAKGTFSPLRAIQTMHLAQNPFICDCHLKWLADYLHTNPIETSGARCTSPRRLANKRIGQIKSKKFRCSGTEDYRSKLSGDCFADLACPEKCRCEGTTVDCSNQKLNKIPEHIPQYTAELRLNNNEFTVLEATGIFKKLPQLRKINFSNNKITDIEEGAFEGASGVNEILLTSNRLENVQHKMFKGLESLKTLMLRSNRITCVGNDSFIGLSSVRLLSLYDNQITTVAPGAFDTLHSLSTLNLLANPFNCNCYLAWLGEWLRKKRIVTGNPRCQKPYFLKEIPIQDVAIQDFTCDDGNDDNSCSPLSRCPTECTCLDTVVRCSNKGLKVLPKGIPRDVTELYLDGNQFTLVPKELSNYKHLTLIDLSNNRISTLSNQSFSNMTQLLTLILSYNRLRCIPPRTFDGLKSLRLLSLHGNDISVVPEGAFNDLSALSHLAIGANPLYCDCNMQWLSDWVKSEYKEPGIARCAGPGEMADKLLLTTPSKKFTCQGPVDVNILAKCNPCLSNPCKNDGTCNSDPVDFYRCTCPYGFKGQDCDVPIHACISNPCKHGGTCHLKEGEEDGFWCICADGFEGENCEVNVDDCEDNDCENNSTCVDGINNYTCLCPPEYTGELCEEKLDFCAQDLNPCQHDSKCILTPKGFKCDCTPGYVGEHCDIDFDDCQDNKCKNGAHCTDAVNGYTCICPEGYSGLFCEFSPPMVLPRT
Take B2: in the experiment on HMVEC-lung [1], the “IL-1β decrease of p120-catenin at the cell surface” value is on record as “reversed this effect” and the “IL-1β reduction of VE-cadherin levels at the cell surface” value is “negated this effect”. For the same molecule, the “Bleomycin-induced pulmonary fibrosis (Sircol collagen)” value in the experiment on BL/6 mice (Robo4+/+ mice, day 11, 5 μg daily i.p.) was “significantly reduced”. Besides, the “Bleomycin-induced EBA accumulation in the lung” value in the experiment with BL/6 mice (Robo4+/+ mice, eleven days after Bleomycin, 5 μg daily i.p.) is listed as “significantly reduced”. Also, in the experiment with BL/6 mice (Robo4-dependent manner), the “histologic examination of the lung, trichrome stain (collagen deposition)” value is “confirmed the effect”. For the same molecule, in the experiment with BL/6 mice (Robo4AP/AP mice), the “effect on Bleomycin-induced EBA accumulation in the lung, Robo4-null mice” value is “lost” and the “effect on Bleomycin-induced pulmonary fibrosis, Robo4-null mice” value was “lost”. In experiment [2], the “association of VE-cadherin and p120-catenin after IL-1β” value is listed as “restores”. In the experiment with HMVEC-lung [3] (Slit2N vs Mock 1.5 hours, membrane fraction and immunofluorescence), the “VE-cadherin levels at the cell surface junctions” value is “significantly increased”. For the same molecule, in the experiment with HMVEC-lung [3] (setting [7]), the “cell surface p120-catenin expression” value was “increased” and the “other junction or catenin family members (β-catenin)” value is recorded as “no observed effect”. For the same molecule, in the experiment on VE-cadherin, the “internalization of VE-cadherin induced by IL-1β” value is “blocks”. Also, the “survival of mice exposed to CLP-induced sepsis” value with C57BL/6 mice [4] (mouse, in vivo, ip) was roughly 80%. Moreover, the “expression of a panel of cytokines and chemokines in plasma” value with C57BL/6 mice [4] (six hours after CLP) was “did not alter”. For the same molecule, in the experiment on C57BL/6 mice [5] (setting [8]), the “inflammatory cell infiltration in BALF in the presence of a VE-cadherin blocking antibody” value is “not” and the “protein exudates in BALF in the presence of a VE-cadherin blocking antibody” value is listed as “not”. In addition, in the experiment with C57BL/6 mice [5] (20 μg control IgG IV, LPS IT), the “inflammatory cell infiltration in BALF in the presence of a control IgG antibody” value is “reduced” and the “protein exudates in BALF in the presence of a control IgG antibody” value is given as “reduced”. For the same molecule, the “vascular leak in the lungs (Evans Blue Albumin)” value in the experiment with C57BL/6 mice [5] (LPS treated Robo4+/+ mice, 10 μg LPS IT, 3.5 μg Slit2N IV) is “significantly reduces”. In the experiment on C57BL/6 mice [5] (LPS treated Robo4AP/AP mice), the “effect on vascular leak in the lungs (Evans Blue Albumin), Robo4-null mice” value is “lost”. Moreover, in the experiment on C57BL/6 mice [5] (Robo4+/+ mice), the “LPS-induced lung inflammation / ALI by histological examination (H&E, quantitative histology)” value is “reducing; also recorded: reduces”. In the experiment on C57BL/6 mice [5] (setting [9]), the “inflammatory cell accumulation in BALF” value is “reduced” and the “protein exudates in BALF” value was “reduced”. In the experiment with C57BL/6 mice [5] (Robo4AP/AP mice), the “inhibition of leukocyte accumulation in BALF, Robo4-null mice” value is “lost” and the “inhibition of protein accumulation in BALF, Robo4-null mice” value is “lost”. Also, the “neutrophil migration to fMLP” value in the experiment on primary human PMNs is listed as “did not respond”. Also, the “lung pathology (H&E)” value in experiment [6] (6 days after infection, compared to mock treated mice) is given as “decreased in severity”. In [6] (6 days post-infection), the “level of inflammatory cytokine release in lung homogenates” value is given as “does not significantly reduce” and the “lung viral titers (viral load)” value is “did not alter”. Besides, the “mortality after H5N1 infection” value in experiment [6] (21 days, 1.56 μg IV daily for 5 days) was “reduced”.
